The test deals with phospholipase C (PLC)-γ2 (chicken (endogenous in DT40)). Description: co-IP.

For one molecule, fold increase of the association in Cbl-deficient against wild-type DT40 cells results are on record in PMC2195830.

B1: phosphorylated B cell linker protein (BLNK), from BCR-stimulated DT40 cells (natural protein)
chain: MDKLNKLAVPAGEKFRKLQKMVHDIKKNESGIINKFKKFQNEQVALICKTGKDTWDRLKKKPPPSLPRRDYASEHADNEEEQWSDDFDSDYENPDGHSDSEMYVVPSEENPDDSYEPPPSEQEKKKIPSSFPISRGEYADNRTSHHQLPPINKPLPSTPSSALPRPKKPSLPSPAAKPKLPLKPRECSDDEDNYIVPVDNDDDNYIEPTESSTPPPAKPPVNRFMKPPAKSALPTPPKPSLASDMQEVYEVPEEEEELSPPPVTRFTKPLPATRAQNAEHSHMHSMTRESPKLDASRNILPLPRNRLHPKTDHEANNNDENHSFSNTQESKFPPGAAPSPLPRALKKTSNAVNPAKPCLPSRDTFTVNEDKPTAADRRRGSSHEFPLPPLPSGTPKSSLQKPLVLPKVPEAPSRALGTSPHSSISSISSTADQDAGVHSKAWYAATCDRKTAEDALYRSNKDGSFLIRKSSGQDSRQPYTLVVFYNRRVYNIPIRFIESTRQYALGREKCGEERFDSVAEIVENHQHTSLVLIDSQNNTKDSTKLKYIVRVS
modifications: phosphotyrosine (sites not defined in the paper)
The molecule B1 yielded a fold increase of the association in Cbl-deficient against wild-type DT40 cells of 3 fold.
